Results as given in paper PMC4401514.

Molecular target: activated Cry1Ac toxin of Bacillus thuringiensis subsp. kurstaki HD73 (Bacillus thuringiensis subsp. kurstaki HD73) (UniProt P05068)
Assay: SPR; BIAcore 3000; Cry1Ac immobilised on CM5 chip by amine coupling; HaALP1f injected at 31.25-500 nM; HBS (10 mM HEPES, 150 mM NaCl, 0.005% Tween20, pH 7.4), 40 ul/min; 1:1 Langmuir model; apparent rate constants

HaALP1f, his-tagged fragment of alkaline phosphatase HaALP1 from Helicoverpa armigera (from UniProt B4Z1D6 192-451) (domain or fragment)
Kd: 7.58 nM | koff: 0.00248 s⁻¹ | kon: 327000 M⁻¹ s⁻¹
